Patent US20230110958A1 (Regeneron, published 2023)

T1: murine IL27 receptor (IL27Ra and gp130) on mouse cells (MC9/STAT3-Luc reporter cells; splenic CD4+ T cells) (mouse, UniProt O70394 25-623; Q00560 23-917)
T1 sequence (looked up) 1: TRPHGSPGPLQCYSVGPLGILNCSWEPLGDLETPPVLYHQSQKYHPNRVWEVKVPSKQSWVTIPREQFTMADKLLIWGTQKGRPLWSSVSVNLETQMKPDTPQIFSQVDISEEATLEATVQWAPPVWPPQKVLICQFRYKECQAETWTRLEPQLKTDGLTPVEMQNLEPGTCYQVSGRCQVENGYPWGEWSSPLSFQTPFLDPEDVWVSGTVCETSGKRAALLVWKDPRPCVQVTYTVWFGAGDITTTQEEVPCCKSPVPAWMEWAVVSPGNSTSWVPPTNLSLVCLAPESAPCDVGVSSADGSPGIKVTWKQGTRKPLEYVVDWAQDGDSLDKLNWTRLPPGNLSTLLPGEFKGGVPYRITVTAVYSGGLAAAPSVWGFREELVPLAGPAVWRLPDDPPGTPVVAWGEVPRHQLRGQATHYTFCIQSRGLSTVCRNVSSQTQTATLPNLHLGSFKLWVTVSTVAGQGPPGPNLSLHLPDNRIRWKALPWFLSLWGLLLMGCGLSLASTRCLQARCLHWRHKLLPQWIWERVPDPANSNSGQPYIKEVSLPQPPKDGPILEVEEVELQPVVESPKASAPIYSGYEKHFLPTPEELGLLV
T1 sequence (looked up) 2: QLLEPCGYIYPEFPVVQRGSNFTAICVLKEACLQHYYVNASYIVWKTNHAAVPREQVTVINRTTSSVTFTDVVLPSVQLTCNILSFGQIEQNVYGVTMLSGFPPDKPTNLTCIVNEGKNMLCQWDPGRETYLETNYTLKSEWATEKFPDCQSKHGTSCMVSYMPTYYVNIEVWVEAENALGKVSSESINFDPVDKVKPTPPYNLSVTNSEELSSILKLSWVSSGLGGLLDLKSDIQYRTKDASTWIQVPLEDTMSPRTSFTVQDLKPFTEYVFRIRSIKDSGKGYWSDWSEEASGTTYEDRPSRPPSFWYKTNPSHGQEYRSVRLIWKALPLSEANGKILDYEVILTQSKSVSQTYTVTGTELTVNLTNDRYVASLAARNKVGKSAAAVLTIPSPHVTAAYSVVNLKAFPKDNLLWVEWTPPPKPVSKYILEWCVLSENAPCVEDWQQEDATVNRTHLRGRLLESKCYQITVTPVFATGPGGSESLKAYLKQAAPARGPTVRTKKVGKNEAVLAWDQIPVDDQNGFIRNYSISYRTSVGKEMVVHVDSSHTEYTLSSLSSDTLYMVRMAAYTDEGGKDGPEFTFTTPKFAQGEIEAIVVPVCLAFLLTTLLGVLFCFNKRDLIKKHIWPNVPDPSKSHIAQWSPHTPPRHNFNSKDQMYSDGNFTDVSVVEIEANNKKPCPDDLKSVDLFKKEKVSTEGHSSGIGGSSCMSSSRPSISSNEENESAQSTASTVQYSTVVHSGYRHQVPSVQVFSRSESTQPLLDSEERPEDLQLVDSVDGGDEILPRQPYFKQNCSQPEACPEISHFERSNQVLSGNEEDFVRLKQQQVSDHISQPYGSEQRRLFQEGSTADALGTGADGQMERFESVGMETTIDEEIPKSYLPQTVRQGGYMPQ


Biological target: T1, murine IL27 receptor (IL27Ra and gp130) …
Test: cell-based or functional assay

Row | EC50 (M), STAT3 luciferase, MC9 cells | FOLD INDUCTION, STAT3 luciferase, MC9 cells | Binder
1 | 8.63e-10 M | 3.02 fold | IL27M3, Bivalent p28-EBI3-Fc (Fc fusion) FPTDPLSLQELRREFTVSLYLARKLLSEVQGYVHSFAESRLPGVNLDLLPLGYHLPNVSLTFQAWHHLSDSERLCFLATTLRPFPAMLGGLGTQGTWTSSEREQLWAMRLDLRDLHRHLRFQVLAAGFKCSKEEEDKEEEEEEEEEEKKLPLGALGGPNQVSSQVSWPQLLYTYQLLHSLELVLSRAVRDLLLLSLPRRPGSAWDSGGGGSGGGGSGGGGSGGGGSGGGGSYTETALVALSQPRVQCHASRYPVAVDCSWTPLQAPNSTRSTSFIATYRLGVATQQQSQPCLQRSPQASRCTIPDVHLFSTVPYMLNVTAVHPGGASSSLLAFVAERIIKPDPPEGVRLRTAGQRLQVLWHPPASWPFPDIFSLKYRLRYRRRGASHFRQVGPIEATTFTLRNSKPHAKYCIQVSAQDLTDYGKPSDWSLPGQVESAPHKPGGGGSGGGGSGGGGSESKYGPPCPPCPAPPVAGPSVFLFPPKPKDTLMISRTPEVTCVVVDVSQEDPEVQFNWYVDGVEVHNAKTKPREEQFNSTYRVVSVLTVLHQDWLNGKEYKCKVSNKGLPSSIEKTISKAKGQPREPQVYTLPPSQEEMTKNQVSLTCLVKGFYPSDIAVEWESNGQPENNYKTTPPVLDSDGSFFLYSRLTVDKSRWQEGNVFSCSVMHEALHNHYTQKSLSLSLGK
2 | 1.22e-11 M | 2.68 fold | IL27M12, monovalent EBI3-p28 x Fc (Fc fusion) chain 1: YTETALVALSQPRVQCHASRYPVAVDCSWTPLQAPNSTRSTSFIATYRLGVATQQQSQPCLQRSPQASRCTIPDVHLFSTVPYMLNVTAVHPGGASSSLLAFVAERIIKPDPPEGVRLRTAGQRLQVLWHPPASWPFPDIFSLKYRLRYRRRGASHFRQVGPIEATTFTLRNSKPHAKYCIQVSAQDLTDYGKPSDWSLPGQVESAPHKPGGGGSGGGGSGGGGSGGGGSFPTDPLSLQELRREFTVSLYLARKLLSEVQGYVHSFAESRLPGVNLDLLPLGYHLPNVSLTFQAWHHLSDSERLCFLATTLRPFPAMLGGLGTQGTWTSSEREQLWAMRLDLRDLHRHLRFQVLAAGFKCSKEEEDKEEEEEEEEEEKKLPLGALGGPNQVSSQVSWPQLLYTYQLLHSLELVLSRAVRDLLLLSLPRRPGSAWDSGGGGSGGGGSGGGGSESKYGPPCPPCPAPPVAGPSVFLFPPKPKDTLMISRTPEVTCVVVDVSQEDPEVQFNWYVDGVEVHNAKTKPREEQFNSTYRVVSVLTVLHQDWLNGKEYKCKVSNKGLPSSIEKTISKAKGQPREPQVYTLPPSQEEMTKNQVSLWCLVKGFYPSDIAVEWESNGQPENNYKTTPPVLDSDGSFFLYSRLTVDKSRWQEGNVFSCSVMHEALHNHYTQKSLSLSLGK chain 2: ESKYGPPCPPCPAPPVAGPSVFLFPPKPKDTLMISRTPEVTCVVVDVSQEDPEVQFNWYVDGVEVHNAKTKPREEQFNSTYRVVSVLTVLHQDWLNGKEYKCKVSNKGLPSSIEKTISKAKGQPREPQVYTLPPSQEEMTKNQVSLSCAVKGFYPSDIAVEWESNGQPENNYKTTPPVLDSDGSFFLVSRLTVDKSRWQEGNVFSCSVMHEALHNRFTQKSLSLSPGK
3 | 4.19e-10 M | 2.91 fold | IL27M5, Bivalent Fc-p28-EBI3 (Fc fusion) ESKYGPPCPPCPAPPVAGPSVFLFPPKPKDTLMISRTPEVTCVVVDVSQEDPEVQFNWYVDGVEVHNAKTKPREEQFNSTYRVVSVLTVLHQDWLNGKEYKCKVSNKGLPSSIEKTISKAKGQPREPQVYTLPPSQEEMTKNQVSLTCLVKGFYPSDIAVEWESNGQPENNYKTTPPVLDSDGSFFLYSRLTVDKSRWQEGNVFSCSVMHEALHNHYTQKSLSLSLGKGGGGSGGGGSGGGGSFPTDPLSLQELRREFTVSLYLARKLLSEVQGYVHSFAESRLPGVNLDLLPLGYHLPNVSLTFQAWHHLSDSERLCFLATTLRPFPAMLGGLGTQGTWTSSEREQLWAMRLDLRDLHRHLRFQVLAAGFKCSKEEEDKEEEEEEEEEEKKLPLGALGGPNQVSSQVSWPQLLYTYQLLHSLELVLSRAVRDLLLLSLPRRPGSAWDSGGGGSGGGGSGGGGSGGGGSGGGGSYTETALVALSQPRVQCHASRYPVAVDCSWTPLQAPNSTRSTSFIATYRLGVATQQQSQPCLQRSPQASRCTIPDVHLFSTVPYMLNVTAVHPGGASSSLLAFVAERIIKPDPPEGVRLRTAGQRLQVLWHPPASWPFPDIFSLKYRLRYRRRGASHFRQVGPIEATTFTLRNSKPHAKYCIQVSAQDLTDYGKPSDWSLPGQVESAPHKP
4 |  | 1.11 fold | IL27M13, Bivalent p28-Fc (Fc fusion) FPTDPLSLQELRREFTVSLYLARKLLSEVQGYVHSFAESRLPGVNLDLLPLGYHLPNVSLTFQAWHHLSDSERLCFLATTLRPFPAMLGGLGTQGTWTSSEREQLWAMRLDLRDLHRHLRFQVLAAGFKCSKEEEDKEEEEEEEEEEKKLPLGALGGPNQVSSQVSWPQLLYTYQLLHSLELVLSRAVRDLLLLSLPRRPGSAWDSGGGGSGGGGSGGGGSESKYGPPCPPCPAPPVAGPSVFLFPPKPKDTLMISRTPEVTCVVVDVSQEDPEVQFNWYVDGVEVHNAKTKPREEQFNSTYRVVSVLTVLHQDWLNGKEYKCKVSNKGLPSSIEKTISKAKGQPREPQVYTLPPSQEEMTKNQVSLTCLVKGFYPSDIAVEWESNGQPENNYKTTPPVLDSDGSFFLYSRLTVDKSRWQEGNVFSCSVMHEALHNHYTQKSLSLSLGK
5 | 3.21e-11 M | 2.8 fold | IL27M6, monovalent Fc-p28 x EBI3 (Fc fusion) chain 1: ESKYGPPCPPCPAPPVAGPSVFLFPPKPKDTLMISRTPEVTCVVVDVSQEDPEVQFNWYVDGVEVHNAKTKPREEQFNSTYRVVSVLTVLHQDWLNGKEYKCKVSNKGLPSSIEKTISKAKGQPREPQVYTLPPSQEEMTKNQVSLWCLVKGFYPSDIAVEWESNGQPENNYKTTPPVLDSDGSFFLYSRLTVDKSRWQEGNVFSCSVMHEALHNHYTQKSLSLSLGKGGGGSGGGGSGGGGSFPTDPLSLQELRREFTVSLYLARKLLSEVQGYVHSFAESRLPGVNLDLLPLGYHLPNVSLTFQAWHHLSDSERLCFLATTLRPFPAMLGGLGTQGTWTSSEREQLWAMRLDLRDLHRHLRFQVLAAGFKCSKEEEDKEEEEEEEEEEKKLPLGALGGPNQVSSQVSWPQLLYTYQLLHSLELVLSRAVRDLLLLSLPRRPGSAWDS chain 2: ESKYGPPCPPCPAPPVAGPSVFLFPPKPKDTLMISRTPEVTCVVVDVSQEDPEVQFNWYVDGVEVHNAKTKPREEQFNSTYRVVSVLTVLHQDWLNGKEYKCKVSNKGLPSSIEKTISKAKGQPREPQVYTLPPSQEEMTKNQVSLSCAVKGFYPSDIAVEWESNGQPENNYKTTPPVLDSDGSFFLVSRLTVDKSRWQEGNVFSCSVMHEALHNRFTQKSLSLSPGKGGGGSGGGGSGGGGSYTETALVALSQPRVQCHASRYPVAVDCSWTPLQAPNSTRSTSFIATYRLGVATQQQSQPCLQRSPQASRCTIPDVHLFSTVPYMLNVTAVHPGGASSSLLAFVAERIIKPDPPEGVRLRTAGQRLQVLWHPPASWPFPDIFSLKYRLRYRRRGASHFRQVGPIEATTFTLRNSKPHAKYCIQVSAQDLTDYGKPSDWSLPGQVESAPHKP
6 | 4.71e-10 M | 2.78 fold | IL27M4, Bivalent Fc-EBI3-p28 (Fc fusion) ESKYGPPCPPCPAPPVAGPSVFLFPPKPKDTLMISRTPEVTCVVVDVSQEDPEVQFNWYVDGVEVHNAKTKPREEQFNSTYRVVSVLTVLHQDWLNGKEYKCKVSNKGLPSSIEKTISKAKGQPREPQVYTLPPSQEEMTKNQVSLTCLVKGFYPSDIAVEWESNGQPENNYKTTPPVLDSDGSFFLYSRLTVDKSRWQEGNVFSCSVMHEALHNHYTQKSLSLSLGKGGGGSGGGGSGGGGSYTETALVALSQPRVQCHASRYPVAVDCSWTPLQAPNSTRSTSFIATYRLGVATQQQSQPCLQRSPQASRCTIPDVHLFSTVPYMLNVTAVHPGGASSSLLAFVAERIIKPDPPEGVRLRTAGQRLQVLWHPPASWPFPDIFSLKYRLRYRRRGASHFRQVGPIEATTFTLRNSKPHAKYCIQVSAQDLTDYGKPSDWSLPGQVESAPHKPGGGGSGGGGSGGGGSGGGGSFPTDPLSLQELRREFTVSLYLARKLLSEVQGYVHSFAESRLPGVNLDLLPLGYHLPNVSLTFQAWHHLSDSERLCFLATTLRPFPAMLGGLGTQGTWTSSEREQLWAMRLDLRDLHRHLRFQVLAAGFKCSKEEEDKEEEEEEEEEEKKLPLGALGGPNQVSSQVSWPQLLYTYQLLHSLELVLSRAVRDLLLLSLPRRPGSAWDS
